Among the data in paper PMC4500170 are Km and kcat values, retold here.

The subject of the data set is Cc1cc(O)cc2c(C(=O)O)c(O)ccc12. The data set can be described thus: purified protein. The following applies: 2.5 mM SAM, 100 mM phosphate pH 6.5, 25 °C, 10 μM enzyme.

As for “NcsB1 (Streptomyces carzinostaticus; R11A)”, the Km – broadly, the concentration of substrate that gives half-maximal velocity – turned out to be 419 ± 61 µM; the kcat (as a rule, the number of substrate molecules converted per active site and unit of time at saturation) was 0.0207 ± 0.001 s⁻¹.
Take “NcsB1 (Streptomyces carzinostaticus; R11K)”: the Km was found to be 319 ± 40 µM and the kcat worked out at 0.0197 ± 0.000833 s⁻¹.
For “NcsB1 (Streptomyces carzinostaticus; R11W)”, in that order: 400 ± 68 µM and 0.01 ± 0.0005 s⁻¹.
Regarding “NcsB1 (Streptomyces carzinostaticus; Y293I)”, the Km worked out at 649 ± 9 µM and the kcat was 0.0127 ± 0.000667 s⁻¹.
